For this assay, the target named is T1, human IL10Rb ECD antigen (human, UniProt Q08334 20-220).
T1 construct: Coat of the panning and PE-ELISA plates; also called hIL10Rb extracellular domain; IL10Rb (plate coat)
T1 sequence: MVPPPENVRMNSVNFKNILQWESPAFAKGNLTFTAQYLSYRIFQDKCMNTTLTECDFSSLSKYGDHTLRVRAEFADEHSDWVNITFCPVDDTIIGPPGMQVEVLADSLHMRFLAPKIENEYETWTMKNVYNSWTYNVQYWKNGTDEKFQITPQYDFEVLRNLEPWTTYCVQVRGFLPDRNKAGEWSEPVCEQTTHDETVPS
In words: periplasmic extract ELISA of phage clones on antigen-coated plate. The protocol: Upon completion of the biopanning of Example 3, three 96-well plates of individual phage clones were isolated in order to perform periplasmic extract ELISA (PE-ELISA) on IL10Rb coated plates to identify positive VHH binders that selectively bound IL10Rb. A 96-well plate was coated with IL10Rb and PBS under the same conditions. Next, wells were blocked at 37° C. for 1 h. Then, 100 μl of extracted antibodies was added to each well and incubated for 1 h. Subsequently, 100 μl of anti-tag polyclonal antibody conjugated to HRP was added to each well and incubated at 37° C. for 1 h. Plates were developed with TMB substrate. The reaction was stopped by the addition of H2SO4. Absorbance at 450 nm was read on a microtiter plate reader. Antibodies with absorbance of the antigen-coated well at least threefold greater than PBS-coated control are VHHs that specifically bind to IL10Rb. Positive clones were sequenced, and sequences analyzed to identify unique clonotypes

B1: hIL10Rb_VHH-4 (VHH)
VHH: QVQLQESGGGSIQAGGSLRLSCAASRYLYSIDYMAWFRQSPGKEREPVAVIYTASGATFYPDSVKGRFTISQDNAKMTVYLQMNSLKSEDTAMYYCAAVRKTDSYLFDAQSFTYWGQGTQVTVSS
notes: Periplasmic extract of the phage clone (pMECS, HA/His) as tested in PE-ELISA; not shown: HA/His tag of the pMECS phagemid
Consider B1, for which the binding result is given as “binds”.

B2: hIL10Rb_VHH-6 (VHH)
VHH: QVQLQESGGGSIQAGGSLTLSCAASRDLYSTNYVAWFRQSPGKEREAVAVIYTASGATLYSDSVKGRFTISQDNAKMTVYLQMNSLKSEDTAMYYCAAVRKTGHYLFDAQSFTYWGQGTQVTVSS
notes: as for B1
As to B2, the binding result was “binds”.
